Here are results for 5 compounds from paper PMC7000712, “A kinetic method for measuring agonist efficacy and ligand bias using high resolution biosensors and a kinetic data analysis framework” (Scientific Reports, 2020).

pEC50, pKd: −log10 of the molar value.

In test [1] the target is T1, angiotensin AT1 receptor (Homo sapiens, UniProt P30556).
T1 construct: The unmodified receptor can be used, providing estimates of authentic rather than forced coupling to arrestin; host or cells: HEK 293 T cells, BacMam transduction, CMV promoter
T1 sequence (P30556 1-359): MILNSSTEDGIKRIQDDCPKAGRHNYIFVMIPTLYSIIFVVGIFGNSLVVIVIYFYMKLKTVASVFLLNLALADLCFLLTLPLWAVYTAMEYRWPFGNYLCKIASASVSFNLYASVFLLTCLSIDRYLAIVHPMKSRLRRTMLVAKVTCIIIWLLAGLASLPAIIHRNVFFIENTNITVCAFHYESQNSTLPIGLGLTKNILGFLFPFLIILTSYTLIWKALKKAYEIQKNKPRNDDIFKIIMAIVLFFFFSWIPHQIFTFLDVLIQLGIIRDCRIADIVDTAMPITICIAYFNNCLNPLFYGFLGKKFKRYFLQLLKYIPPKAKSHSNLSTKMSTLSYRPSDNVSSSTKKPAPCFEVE
Put plainly: Arrestin-3 (β-arrestin2) mNeonGreen biosensor recruitment, AT1 receptor, HEK 293 T cells (time course). Format: cell-based. An excerpt:
We and others have developed fluorescent biosensors in which intrinsically fluorescent protein sensors have been incorporated. (Three examples used in this study are R-GECO[22] for Ca^2+, Downward DAG for DAG and cADDis for cAMP[21]). The protein sensors have been engineered to be conformationally-sensitive, such that interaction with the signaling molecule of interest changes the optical properties, enabling the interaction to be detected as a change of fluorescence intensity. Since the proteins are intrinsically fluorescent, no chemical tagging or substrate addition is necessary to generate the optical signal. Here this approach was used to develop a biosensor of receptor-arrestin interaction (Fig. 1a).
We used the kτ method to quantify the kinetics of arrestin recruitment of five AT1 receptor ligands with known varying degrees of arrestin recruitment and bias. The method for quantifying kτ is as follows (illustrated schematically in Supplementary Fig. S5). […] From these fits the fitted parameter values were taken for Plateau and kobs. These values were then multiplied together. […] The data were then fit to the sigmoid curve equation, for example the “log(agonist) vs. response–Variable slope” equation in Prism[46]. From this fit kτ was obtained - it is the value of the asymptote. More precisely, kτ is the Plateau x kobs value for a maximally-effective concentration of ligand.
All that is required is a time course of response measurement at a single, maximally-stimulating concentration of ligand (maximally-stimulating at all time points). […] The data were fit to the association exponential equation to determine Plateau and kobs. kτ was then calculated - it is the Plateau multiplied by kobs for a maximally-stimulating concentration of ligand, as explained in the Appendix.
The first biosensors that positioned analyte binding domains in this position used a circularly permuted version of the fluorescent protein, and include the GCaMP and GECO Ca^2+ sensors, the upward and downward DAG sensors, and the caDDis cAMP sensor[21],[22]. More recently it has become clearer that if the termini of the analyte binding domain are close to one another, then the entire binding domain can be inserted into the 7th stave of the fluorescent protein without having to circularly permute the fluorescent protein[60].
HEK 293 T cells were cultured in Eagle’s minimum essential media (EMEM) supplemented with 10% fetal bovine serum (FBS) and penicillin-streptomycin at 37 °C in 5% CO2. For BacMam transduction, cells were resuspended in media at a density of 52,000 cells per 100 μL. […] For each experiment 4.24 × 10^8 viral genes of arrestin virus were added to each well. For multiplex experiments, 4.79 × 10^8 viral genes of the Red DAG sensor or 6.18 × 10^8. Viral genes of the Red cADDis (cAMP) sensor were added with the arrestin sensor. For experiments with the R-GECO sensor, 8.46 × 10^8 viral genes were added to each well. The viruses carrying the AT1 and V2 receptors were added such that 2.12 × 10^8 and 3.04 × 10^8 viral genes went into each well, respectively. For the β2-adrenoceptor experiment, 4.28 × 10^8 viral genes for the receptor and 2.13 × 10^8 viral genes of GPCR kinase 2 were added to each well.

Test [2] deals with T1, angiotensin AT1 receptor. Put plainly: Ca^2+ mobilization, R-GECO sensor, AT1 receptor, HEK 293 T cells. Format: cell-based. To be noted: 32 μM; mean kτ of ligand divided by that for AngII. The source says: Biased agonism quantification relates the capacity of a ligand to activate one pathway relative to one or more other pathways[9]–[12]. Numerous methods and scales have been developed and successfully applied[8],[47],[53]–[59]. One approach is to compare ligand efficacy, i.e. the capacity of the agonist-occupied receptor to generate the signal. kτ provides such an efficacy value, being the initial rate of signal generation by the agonist-occupied receptor. Here kτ is used to assess signaling bias of the AT1 receptor ligands described above. […] In this study, G-protein signaling and arrestin recruitment was measured using the same fluorescent biosensor assay modality, enabling near-identical conditions to be employed in comparing the pathways. The Gq pathway was quantified at the level of diacylglycerol using the Red Downward DAG sensor[21] (Fig. 5b), and, one step downstream, Ca^2+ mobilization measured using the R-GECO sensor[22] […]
HEK 293 T cells were cultured in Eagle’s minimum essential media (EMEM) supplemented with 10% fetal bovine serum (FBS) and penicillin-streptomycin at 37 °C in 5% CO2. […] Thirty minutes prior to fluorescence plate reader or imaging experiments, the media in each well was replaced with 150 μL of Dulbecco’s phosphate buffered saline (DPBS) supplemented with Ca^2+ (0.9 mM) and Mg^2+ (0.5 mM). […]

In test [3] the test system is β2-adrenoceptor. Put plainly: Arrestin sensor response via the β2-adrenoceptor. It is filed as cell-based. To be noted: 10 μM isoproterenol; cells also transduced with GPCR kinase 2; n = 4; Biotek Synergy Mx. Here is the method: HEK 293 T cells were cultured in Eagle’s minimum essential media (EMEM) supplemented with 10% fetal bovine serum (FBS) and penicillin-streptomycin at 37 °C in 5% CO2. For BacMam transduction, cells were resuspended in media at a density of 52,000 cells per 100 μL. […] For each experiment 4.24 × 10^8 viral genes of arrestin virus were added to each well. For multiplex experiments, 4.79 × 10^8 viral genes of the Red DAG sensor or 6.18 × 10^8. Viral genes of the Red cADDis (cAMP) sensor were added with the arrestin sensor. For experiments with the R-GECO sensor, 8.46 × 10^8 viral genes were added to each well. The viruses carrying the AT1 and V2 receptors were added such that 2.12 × 10^8 and 3.04 × 10^8 viral genes went into each well, respectively. For the β2-adrenoceptor experiment, 4.28 × 10^8 viral genes for the receptor and 2.13 × 10^8 viral genes of GPCR kinase 2 were added to each well. The cell/transduction mixture was then seeded into 96-well plates and incubated for ~24 hours at 37 °C in 5% CO2. Thirty minutes prior to fluorescence plate reader or imaging experiments, the media in each well was replaced with 150 μL of Dulbecco’s phosphate buffered saline (DPBS) supplemented with Ca^2+ (0.9 mM) and Mg^2+ (0.5 mM).
Fluorescence plate reader experiments were performed on the BioTek Synergy Mx (BioTek, Winooski, VT) and BMG CLARIOstar (BMG Labtech, Cary, NC) in 96 well plates.

Test [4] has as its target angiotensin AT1 receptor (UniProt P30556).
For test [5] the target is unchanged. Put plainly: conformation-sensitive fluorescent arrestin biosensor in live cells; as a6, 32 μM SII.
For test [6] the target is unchanged. The test can be described thus: conformation-sensitive fluorescent arrestin biosensor in live cells; as a6, 32 μM TRV120026.
The target is the same in test [7]. The test can be described thus: conformation-sensitive fluorescent arrestin biosensor in live cells; as a6, 32 μM TRV120045.
Test [8] has the same target. The test can be described thus: conformation-sensitive fluorescent arrestin biosensor in live cells; as a6, 32 μM TRV120055.
Test [9] shares this target. The test can be described thus: conformation-sensitive fluorescent arrestin biosensor in live cells; as a1, concentration-response with the agonist SII.
Test [10] shares this target. The test can be described thus: conformation-sensitive fluorescent arrestin biosensor in live cells; as a1, concentration-response with the agonist TRV026 (TRV120026).
Test [11] has the same target. Put plainly: conformation-sensitive fluorescent arrestin biosensor in live cells; as a1, concentration-response with the agonist TRV045 (TRV120045).
For test [12] the target is unchanged. Put plainly: conformation-sensitive fluorescent arrestin biosensor in live cells; as a1, concentration-response with the agonist TRV055 (TRV120055).
Test [13] has the same target. Put plainly: conformation-sensitive fluorescent arrestin biosensor in live cells; HEK 293 T cells with sensor and AT1 receptor; AngII 10 nM-32 μM; time courses fit to the association exponential, Plateau x kobs against concentration fit to a sigmoid, kτ is its top; DPBS with Ca2+ and Mg2+; Biotek Synergy Mx.
Test [14] has the same target. The test can be described thus: conformation-sensitive fluorescent arrestin biosensor in live cells; HEK 293 T cells with sensor and AT1 receptor; single maximally-stimulating concentration, 32 μM AngII; time course fit to the association exponential, kτ = Plateau x kobs; ΔF/F normalised to baseline; Biotek Synergy Mx (Fig. 5a) or BMG CLARIOstar (Fig. 1b).
For test [15], the system named is parathyroid hormone 1 (PTH1) receptor. To be noted: endosomal compartment; cited from earlier work. An excerpt:
The kinetics/dynamics of G-protein-coupled receptor (GPCR) signaling is of increasing interest in elaborating the biology and therapeutic potential of these receptors[1]–[3]. The time frame of GPCR signal transduction is dependent on the signaling pathway, regulation of signaling mechanism, and location of the receptor in the cell (spatiotemporal signaling). Temporal dynamics of signaling are being elucidated and applied to develop new therapeutics. For example, the parathyroid hormone 1 (PTH1) receptor can signal persistently over time after partitioning into the endosomal compartment. Thi ...

In general, pEC50 refers to the EC50 on a negative log10 scale, so that one unit is a factor of ten. As to `CC[C@H](C)[C@H](NC(=O)[C@@H]1CCCN1C(=O)[C@H](Cc1c[nH]cn1)NC(=O)[C@@H](NC(=O)[C@@H](NC(=O)[C@@H](NC(=O)[C@H](CCCNC(=N)N)NC(=O)CNC)C(C)C)[C@@H](C)CC)[C@@H](C)CC)C(=O)O` [SII, [sarcosine^1, Ile^4, Ile^8]AngII], in test [1] (32 μM, mean kτ of ligand divided by that for AngII), the “kτ (% AngII), arrestin (single concentration)” value came to 49 % AngII. In addition, the “Emax, 1 minute time point” value in test [1] (1 min (rise phase), sigmoid fit, representative experiments) is listed as 64 % Ang II. Further, the “Emax, 20 minute time point” value in test [1] (20 min (plateau), sigmoid fit, representative experiments) is on record as 88 % Ang II. Also, the pEC50 is 6.21 in [1] (EC50, 1 minute time point, 1 min (rise phase), sigmoid fit, representative experiments) and 6.68 in test [1] (EC50, 20 minute time point, 20 min (plateau), sigmoid fit, representative experiments). Moreover, the pKd in test [1] (calculated from the mean pKA value, L50 of Plateau × kobs vs concentration curve, read-out: KA) is 5.96. The “kτ (% AngII), arrestin (concentration-response)” value in test [1] (concentration-response method, mean kτ of ligand divided by that for AngII) is 48 % AngII. Besides, in test [1] (concentration-response of the initial rate, repeated from Table 1 in Supplementary Table S2), the “Emax, kinetic model initial rate” value is on record as 48 % Ang II. In addition, in test [2], the “kτ (% AngII), calcium” value worked out at 12 % AngII.
In the case of `CC(C)NCC(O)c1ccc(O)c(O)c1` (stereo not shown) [isoproterenol], the “ΔF/F, β2-adrenoceptor” value in test [3] amounted to 0.84.
“[sarcosine^1, Ile^4, Ile^8]AngII (peptide)”: in test [4], the KA from the operational model fit of the arrestin sensor concentration-response at the single time point 1 min turned out to be 1200 nM and the KA from the operational model fit of the arrestin sensor concentration-response at the single time point 20 min amounted to 530 nM.
With “arrestin-3 (β-arrestin2) fluorescent biosensor incorporating mNeonGreen (from UniProt P32121 1-409)”, the kτ (initial rate of arrestin recruitment) with 32 μM SII in test [5] amounted to 0.2 NFU.min^-1. In addition, in test [6], the kτ (initial rate of arrestin recruitment) with 32 μM TRV120026 amounted to 0.25 NFU.min^-1. Moreover, in test [7], the kτ (initial rate of arrestin recruitment) with 32 μM TRV120045 stood at 0.38 NFU.min^-1. In test [8], this compound had a kτ (initial rate of arrestin recruitment) with 32 μM TRV120055 of 0.37 NFU.min^-1. Also, the kτ (initial rate of arrestin recruitment) with SII in [9] is 0.2 NFU.min^-1. The same compound displayed a kτ (initial rate of arrestin recruitment) with TRV026 in [10] of 0.25 NFU.min^-1. Moreover, the kτ (initial rate of arrestin recruitment) with TRV045 in [11] worked out at 0.36 NFU.min^-1. Further, the kτ (initial rate of arrestin recruitment) with TRV055 in [12] is 0.38 NFU.min^-1. Further, the kτ (initial rate of arrestin recruitment) with AngII in test [13] worked out at 0.41 NFU.min^-1. Besides, in test [14], the kτ (initial rate of arrestin recruitment) with 32 μM AngII stood at 0.4 NFU.min^-1, the t1/2 of arrestin recruitment (0.693/kobs) with 32 μM AngII came to 45 s and the ΔF/F (fluorescence after agonist divided by baseline) with 32 µM AngII turned out to be 0.56.
For parathyroid hormone [PTH], the “persistent signaling (in words)” value in test [15] is on record as “persistent signaling”.
